Reference: patent US20100285028A1

Biological target: von Willebrand factor (mouse) (UniProt Q8CIZ8)
Assay: cell-based or functional assay

UniProt Q8CIZ8, sequence (Q8CIZ8 764-2813 limits assumed): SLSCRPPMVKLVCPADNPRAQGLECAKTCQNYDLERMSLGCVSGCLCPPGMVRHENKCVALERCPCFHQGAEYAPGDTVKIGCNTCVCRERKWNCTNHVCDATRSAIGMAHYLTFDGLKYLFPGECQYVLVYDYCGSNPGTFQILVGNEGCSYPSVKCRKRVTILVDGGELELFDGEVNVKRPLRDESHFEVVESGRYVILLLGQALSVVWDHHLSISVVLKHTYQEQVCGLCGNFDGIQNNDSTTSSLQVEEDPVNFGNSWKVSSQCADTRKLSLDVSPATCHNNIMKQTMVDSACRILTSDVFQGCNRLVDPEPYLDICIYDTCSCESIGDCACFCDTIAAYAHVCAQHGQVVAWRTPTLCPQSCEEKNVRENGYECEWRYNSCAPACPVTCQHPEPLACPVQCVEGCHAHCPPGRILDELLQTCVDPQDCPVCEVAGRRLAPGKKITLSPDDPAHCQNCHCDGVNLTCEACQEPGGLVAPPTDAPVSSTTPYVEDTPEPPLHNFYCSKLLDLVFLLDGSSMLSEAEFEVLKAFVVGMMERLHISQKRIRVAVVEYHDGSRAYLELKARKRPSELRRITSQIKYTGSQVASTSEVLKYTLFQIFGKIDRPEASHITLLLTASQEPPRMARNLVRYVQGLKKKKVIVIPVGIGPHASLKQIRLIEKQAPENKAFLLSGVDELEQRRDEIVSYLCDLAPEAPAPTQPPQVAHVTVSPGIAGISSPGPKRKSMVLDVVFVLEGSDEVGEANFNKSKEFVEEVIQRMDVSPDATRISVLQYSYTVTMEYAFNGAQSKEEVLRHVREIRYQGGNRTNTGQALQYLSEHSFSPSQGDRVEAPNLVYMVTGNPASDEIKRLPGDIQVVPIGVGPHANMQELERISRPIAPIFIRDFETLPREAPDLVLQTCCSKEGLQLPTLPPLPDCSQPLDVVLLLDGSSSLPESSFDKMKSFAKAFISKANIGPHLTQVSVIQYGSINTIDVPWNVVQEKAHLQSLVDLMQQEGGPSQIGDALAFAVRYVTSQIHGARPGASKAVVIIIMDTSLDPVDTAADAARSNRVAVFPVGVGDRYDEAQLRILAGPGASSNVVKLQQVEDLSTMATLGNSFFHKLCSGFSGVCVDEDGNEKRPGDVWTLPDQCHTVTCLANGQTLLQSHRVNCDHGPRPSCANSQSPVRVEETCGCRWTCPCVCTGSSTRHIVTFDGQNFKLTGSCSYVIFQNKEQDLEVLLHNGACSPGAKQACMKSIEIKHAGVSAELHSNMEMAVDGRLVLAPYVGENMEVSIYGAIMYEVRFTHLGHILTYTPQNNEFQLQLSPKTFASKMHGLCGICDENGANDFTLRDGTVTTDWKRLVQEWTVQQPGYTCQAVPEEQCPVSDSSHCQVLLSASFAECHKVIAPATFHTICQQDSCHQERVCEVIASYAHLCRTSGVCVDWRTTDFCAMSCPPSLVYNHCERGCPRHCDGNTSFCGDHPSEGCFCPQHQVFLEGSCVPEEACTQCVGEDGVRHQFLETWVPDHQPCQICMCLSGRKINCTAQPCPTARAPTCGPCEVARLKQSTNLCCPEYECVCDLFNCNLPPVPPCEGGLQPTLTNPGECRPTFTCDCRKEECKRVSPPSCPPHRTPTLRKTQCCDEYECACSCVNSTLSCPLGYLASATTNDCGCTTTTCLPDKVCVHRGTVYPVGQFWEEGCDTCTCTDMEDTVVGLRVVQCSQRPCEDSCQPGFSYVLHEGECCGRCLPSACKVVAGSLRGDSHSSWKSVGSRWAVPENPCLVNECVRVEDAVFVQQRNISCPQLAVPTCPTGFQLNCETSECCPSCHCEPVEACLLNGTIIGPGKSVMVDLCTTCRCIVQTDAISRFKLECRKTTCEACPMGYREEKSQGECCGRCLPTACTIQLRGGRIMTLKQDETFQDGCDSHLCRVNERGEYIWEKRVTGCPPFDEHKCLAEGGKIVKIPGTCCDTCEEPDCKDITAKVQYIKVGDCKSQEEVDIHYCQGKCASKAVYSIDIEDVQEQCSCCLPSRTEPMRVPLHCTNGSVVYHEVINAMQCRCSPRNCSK

- circulating plasma vWF abundance in mice lacking Asgr-1: 1.5 fold
Substance: Asgr-1 chain of the Ashwell receptor (from UniProt P34927 1-284)
